Experimental data from paper PMC5823874, “The structure of iPLA2β reveals dimeric active sites and suggests mechanisms of regulation and localization” (Nature Communications, 2018).
No end group written: not given here.

Target: Calmodulin (CaM), unmodified (UniProt P0DP23 1-149)
Test: fluorescence polarisation; synthetic FAM-labeled peptides of iPLA2β with CaM (Supplementary Figure 7h)
Settings: both partners purified

Binder	Kd
AWSEMVGIQYFR (also: FAM label (position not given here)) [Synthetic FAM-labeled peptide corresponding to the IQ motif of iPLA2β]	5.9 ± 0.8 µM
RKGQGNKVKK (also: FAM label (position not given here)) [Synthetic FAM-labeled peptide corresponding to the 1-9-14 motif of iPLA2β]	2.5 ± 0.4 µM
